In patent publication US20190170753A1 (ICAHN SCHOOL OF MEDICINE AT MOUNT SINAI, published 2019):
Where no end group is shown, it is not given here.

Experiments:
[1] = target: T1, Mut1T110N biotin labeled HCV core peptide (hepatitis C virus, biotin labeled (position not given)); test: capture EIA; Ab 7.813 ng/mL; bt-peptide 500 ng/mL
T1 peptide: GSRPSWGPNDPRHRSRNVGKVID

[2] = target: T2, C113T109N biotin labeled HCV core peptide (hepatitis C virus, also: biotin labeled, position not given here); test: capture EIA; Ab 7.813 ng/mL; bt-peptide 500 ng/mL
T2 construct: also called C113T110N
T2 peptide: RGSRPSWGPND

[3] = target: T3, Mut6T110S biotin labeled HCV core peptide (hepatitis C virus, biotin labeled (position not given)); test: capture EIA; Ab 7.813 ng/mL; bt-peptide 500 ng/mL
[4] = target: T4, C113WT biotin labeled HCV core peptide (hepatitis C virus, also: biotin labeled, position not given here); test: capture EIA; Ab 7.813 ng/mL; bt-peptide 500 ng/mL
T4 peptide: RGSRPSWGPTD

[5] = target: T5, WT1STHV biotin labeled HCV core peptide (hepatitis C virus, biotin labeled (position not given)); test: capture EIA; Ab 7.813 ng/mL; bt-peptide 500 ng/mL
T5 peptide: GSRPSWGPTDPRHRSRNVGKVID

[6] = target: T6, 92-133 biotin labeled HCV core peptide (hepatitis C virus, UniProt Q9WMX2 92-133, chain 1: biotin label (bt-pep). Its position and any spacer are not visible in the passages shown.); test: capture EIA; Ab 7.813 ng/mL; bt-peptide 500 ng/mL
T6 construct: Only the label 92-133 is printed
T6 peptide: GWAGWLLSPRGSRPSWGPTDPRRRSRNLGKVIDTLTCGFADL
Experimental: (§1) Assay wells were coated with sheep anti-mouse IgG Fc specific antibody and incubated overnight. The coating solution was then removed; the wells blocked using BSA/tween in PBS and then washed with dH2O. […] Next, biotin labeled peptides (diluted to 500 ng/mL in block) were added, the plates incubated for 10 minutes while shaking at 700 rpm and then washed. Peroxidase conjugated streptavidin (diluted to 200 ng/mL in block) was then added to all assay wells, incubated for 20 minutes while shaking at 700 rpm and then washed. Finally, color was developed using OPD and signal quenched using 1N H₂SO₄. Signal was read at 492 nm.

[7] = target: T1, Mut1T110N biotin labeled HCV core …; test: capture EIA; Ab 62.5 ng/mL; bt-peptide 500 ng/mL
Experimental: as §1

[8] = target: T2, C113T109N biotin labeled HCV core …; test: capture EIA; Ab 62.5 ng/mL; bt-peptide 500 ng/mL
Experimental: as §1

[9] = target: T3, Mut6T110S biotin labeled HCV core …; test: capture EIA; Ab 62.5 ng/mL; bt-peptide 500 ng/mL
Experimental: as §1

[10] = target: T4, C113WT biotin labeled HCV core peptide; test: capture EIA; Ab 62.5 ng/mL; bt-peptide 500 ng/mL
Experimental: as §1

[11] = target: T5, WT1STHV biotin labeled HCV core peptide; test: capture EIA; Ab 62.5 ng/mL; bt-peptide 500 ng/mL
Experimental: as §1

[12] = target: T6, 92-133 biotin labeled HCV core peptide; test: capture EIA; Ab 62.5 ng/mL; bt-peptide 500 ng/mL
Experimental: as §1

[13] = target: T3, Mut6T110S biotin labeled HCV core …; test: capture EIA; Ab 15.6 ng/mL; bt-peptide 500 ng/mL (summary of Table 7)
Experimental: as §1

[14] = target: T6, 92-133 biotin labeled HCV core peptide; test: as above
Experimental: as §1

[15] = target: T1, Mut1T110N biotin labeled HCV core …; test: capture EIA; Ab 0.977 ng/mL; bt-peptide 500 ng/mL
Experimental: as §1

[16] = target: T2, C113T109N biotin labeled HCV core …; test: capture EIA; Ab 0.977 ng/mL; bt-peptide 500 ng/mL
Experimental: as §1

[17] = target: T3, Mut6T110S biotin labeled HCV core …; test: capture EIA; Ab 0.977 ng/mL; bt-peptide 500 ng/mL
Experimental: as §1

[18] = target: T4, C113WT biotin labeled HCV core peptide; test: capture EIA; Ab 0.977 ng/mL; bt-peptide 500 ng/mL
Experimental: as §1

[19] = target: T5, WT1STHV biotin labeled HCV core peptide; test: capture EIA; Ab 0.977 ng/mL; bt-peptide 500 ng/mL
Experimental: as §1

[20] = target: T6, 92-133 biotin labeled HCV core peptide; test: capture EIA; Ab 0.977 ng/mL; bt-peptide 500 ng/mL
Experimental: as §1

[21] = target: T1, Mut1T110N biotin labeled HCV core …; test: capture EIA; Ab 250 ng/mL; bt-peptide 500 ng/mL
Experimental: as §1

[22] = target: T2, C113T109N biotin labeled HCV core …; test: capture EIA; Ab 250 ng/mL; bt-peptide 500 ng/mL
Experimental: as §1

[23] = target: T3, Mut6T110S biotin labeled HCV core …; test: capture EIA; Ab 250 ng/mL; bt-peptide 500 ng/mL
Experimental: as §1

[24] = target: T4, C113WT biotin labeled HCV core peptide; test: capture EIA; Ab 250 ng/mL; bt-peptide 500 ng/mL
Experimental: as §1

[25] = target: T5, WT1STHV biotin labeled HCV core peptide; test: capture EIA; Ab 250 ng/mL; bt-peptide 500 ng/mL
Experimental: as §1

[26] = target: T6, 92-133 biotin labeled HCV core peptide; test: capture EIA; Ab 250 ng/mL; bt-peptide 500 ng/mL
Experimental: as §1

B1: Neo4 mouse monoclonal antibody (antibody, V domains shown)
VH: QIQLKESGPAVIKPSQSLSLTCIVSGFSITSSVYCWQWIRQPPGKGLEWMGRICYDGSVDYSPSITSRGTISRDTSLNKVFFQLSSVTNEDTAMYYCSRENHIDYYDTTYPSFDVWGAGTTVTVSS
VL: DIVLTQSPASLIVSLGQRATISCRASKSVNEYGYTYMHWYQQKPGLPPKLLIYLASNLDSGVPARFSGSGSGTDFTLNIHPVEEEDAATYYCQHSRELPYTFGGGTKLEIKR
notes: Mouse hybridoma antibody, isotype IgG1, purified with Protein G; also called HCV Neo4
signal at 492 nm [1]: 0.0729 A492 | signal at 492 nm [2]: 0.0751 A492 | signal at 492 nm [3]: 0.132 A492 | signal at 492 nm [4]: 0.0731 A492 | signal at 492 nm [5]: 1.04 A492 | signal at 492 nm [6]: 0.45 A492 | signal at 492 nm [7]: 0.139 A492 | signal at 492 nm [8]: 0.111 A492 | signal at 492 nm [9]: 1.11 A492 | signal at 492 nm [10]: 0.0626 A492 | signal at 492 nm [11]: 1.85 A492 | signal at 492 nm [12]: 1.47 A492 | signal at 492 nm [13]: 0.25 A492 | signal at 492 nm [14]: 0.806 A492 | signal at 492 nm [15]: 0.0619 A492 | signal at 492 nm [16]: 0.0784 A492 | signal at 492 nm [17]: 0.0644 A492 | signal at 492 nm [18]: 0.0584 A492 | signal at 492 nm [19]: 0.22 A492 | signal at 492 nm [20]: 0.0978 A492 | signal at 492 nm [21]: 0.089 A492 | signal at 492 nm [22]: 0.111 A492 | signal at 492 nm [23]: 1.15 A492 | signal at 492 nm [24]: 0.0607 A492 | signal at 492 nm [25]: 1.99 A492 | signal at 492 nm [26]: 1.4 A492
